Target: FGFR1c and βKlotho receptor complex on membrane vesicles of CHO cells overexpressing both (human) (UniProt Q86Z14)
Assay: cryo-EM and cryo-ET of a gold-nanoparticle-labelled ligand on membrane vesicles; membrane preparations (~5 mg/ml) incubated with AuE38C-FGF21 (0.03 mg/ml) on ice for 30 min, washed with 1X PBS three times, plunge-frozen; AuNPs and AuNP pairs counted in tomograms

Sequence of UniProt Q86Z14 (Q86Z14 whole entry, chain 1 of 2): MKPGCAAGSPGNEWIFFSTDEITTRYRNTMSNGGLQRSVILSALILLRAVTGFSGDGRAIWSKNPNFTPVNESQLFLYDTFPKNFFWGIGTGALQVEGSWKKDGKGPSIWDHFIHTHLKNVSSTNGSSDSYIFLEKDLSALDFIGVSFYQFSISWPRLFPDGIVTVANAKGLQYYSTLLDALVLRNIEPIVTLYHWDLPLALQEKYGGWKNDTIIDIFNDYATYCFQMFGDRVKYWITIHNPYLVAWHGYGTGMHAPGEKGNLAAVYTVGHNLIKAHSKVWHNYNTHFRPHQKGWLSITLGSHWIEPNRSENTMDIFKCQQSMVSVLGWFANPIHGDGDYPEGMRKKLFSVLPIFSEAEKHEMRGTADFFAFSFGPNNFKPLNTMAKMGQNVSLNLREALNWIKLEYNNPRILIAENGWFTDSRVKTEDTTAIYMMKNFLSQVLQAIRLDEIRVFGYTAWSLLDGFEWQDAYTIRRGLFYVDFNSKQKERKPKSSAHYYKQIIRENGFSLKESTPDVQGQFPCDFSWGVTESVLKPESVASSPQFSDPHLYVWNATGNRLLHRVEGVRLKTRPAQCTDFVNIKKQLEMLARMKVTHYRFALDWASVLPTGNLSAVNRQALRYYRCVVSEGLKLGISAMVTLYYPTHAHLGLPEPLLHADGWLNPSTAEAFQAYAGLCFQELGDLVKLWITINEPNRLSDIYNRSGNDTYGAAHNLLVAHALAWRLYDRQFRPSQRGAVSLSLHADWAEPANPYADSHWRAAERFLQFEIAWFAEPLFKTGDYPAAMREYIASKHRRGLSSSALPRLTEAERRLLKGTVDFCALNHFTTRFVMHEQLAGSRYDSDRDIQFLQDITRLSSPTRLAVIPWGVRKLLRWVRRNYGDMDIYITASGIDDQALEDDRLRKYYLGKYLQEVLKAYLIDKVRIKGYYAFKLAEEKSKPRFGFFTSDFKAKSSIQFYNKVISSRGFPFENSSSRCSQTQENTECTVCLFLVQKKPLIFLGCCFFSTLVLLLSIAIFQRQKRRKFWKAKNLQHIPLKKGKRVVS
Sequence of UniProt Q86Z14 (P11362 22-822, chain 2 of 2, further chain): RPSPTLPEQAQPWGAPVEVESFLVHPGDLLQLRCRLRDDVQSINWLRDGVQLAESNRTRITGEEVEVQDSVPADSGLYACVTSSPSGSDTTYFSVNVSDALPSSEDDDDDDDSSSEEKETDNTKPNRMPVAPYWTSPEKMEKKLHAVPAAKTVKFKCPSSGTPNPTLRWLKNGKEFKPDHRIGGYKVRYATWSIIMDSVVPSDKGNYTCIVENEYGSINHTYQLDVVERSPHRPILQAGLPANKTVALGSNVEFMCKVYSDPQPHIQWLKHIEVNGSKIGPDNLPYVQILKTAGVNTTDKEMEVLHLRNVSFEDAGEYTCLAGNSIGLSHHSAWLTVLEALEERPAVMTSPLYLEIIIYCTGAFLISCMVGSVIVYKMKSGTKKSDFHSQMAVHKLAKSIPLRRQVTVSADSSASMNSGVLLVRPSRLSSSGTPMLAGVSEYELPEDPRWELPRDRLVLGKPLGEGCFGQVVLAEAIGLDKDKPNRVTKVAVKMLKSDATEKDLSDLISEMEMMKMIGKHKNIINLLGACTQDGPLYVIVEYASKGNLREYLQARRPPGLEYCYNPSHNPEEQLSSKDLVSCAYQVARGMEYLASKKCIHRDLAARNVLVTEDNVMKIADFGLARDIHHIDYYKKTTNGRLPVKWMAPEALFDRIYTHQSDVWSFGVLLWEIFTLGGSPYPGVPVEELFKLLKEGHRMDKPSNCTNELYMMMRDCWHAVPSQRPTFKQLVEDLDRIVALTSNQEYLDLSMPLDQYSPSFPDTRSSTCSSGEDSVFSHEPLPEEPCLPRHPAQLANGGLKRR

AuNP-FGF21 (E38C-FGF21 conjugated with a 144-gold atom nanoparticle) (ligand)
percent of AuNPs in true pairs: 85%
stoichiometry N (copies of FGF21 in the receptor complex): 2

From paper PMC6349402
